Results on ten molecules are retold here after patent US20140363423A1 (NATIONAL TAIWAN UNIVERSITY, published 2014).

Where “and” joins values, the source holds several entries; their conditions need not be identical. Identical values can stand only once.

Assay [1] concerns the target platelet glycoprotein VI (GPVI) on washed human platelets (human) (UniProt Q9HCN6). The experiment in a line: cell-based or functional assay.
Assay [2] has as its target T1, platelet glycoprotein VI (GPVI) on washed human platelets (human), Q9HCN6.
T1 chain: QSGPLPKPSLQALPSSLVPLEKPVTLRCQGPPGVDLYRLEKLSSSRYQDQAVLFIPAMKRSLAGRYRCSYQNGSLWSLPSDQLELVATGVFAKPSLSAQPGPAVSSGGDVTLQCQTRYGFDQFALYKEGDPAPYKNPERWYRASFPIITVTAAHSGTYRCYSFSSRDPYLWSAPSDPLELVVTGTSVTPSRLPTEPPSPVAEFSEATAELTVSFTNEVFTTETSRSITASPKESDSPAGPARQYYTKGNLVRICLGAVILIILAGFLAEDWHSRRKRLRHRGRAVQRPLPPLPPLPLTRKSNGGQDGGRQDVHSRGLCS
The experiment in a line: cell-based or functional assay.

Assay [3] concerns the target T2, platelet glycoprotein VI (GPVI) on washed human platelets (human, UniProt Q9HCN6 21-339).
T2 construct: whole, on cells; Native receptor on human platelets; also called platelet GPVI; collagen receptor GPVI
T2 sequence: T1 chain
Kind of assay: flow cytometry on human platelets; inhibition of 6B12 (anti-GPVI) binding. For orientation: Flow cytometry measures light scatter and fluorescence of single cells or particles in a stream.

In assay [4] the target is T2, platelet glycoprotein VI (GPVI) on …. The experiment in a line: cell-based or functional assay.

Tro-α6 M117A mutant hexapeptide CKWANV yielded an Inhibition of the collagen-induced aggregation (%) at 100 µg/ml in assay [1] of 52.9%.

Consider d-form Tro-α6 hexapeptide C(dK)WM(dN)V, for which, in assay [1], the IC50, inhibition of the collagen-induced aggregation was 6.82 µg/ml and 8.75 µM; the Inhibition of the collagen-induced aggregation (%) at 100 µg/ml was found to be 89.4%. On to Tro-α6 W116A mutant hexapeptide CKAMNV, for which the Inhibition of the collagen-induced aggregation (%) at 100 µg/ml in assay [1] is 12.3%.

On to GFCKWMNVAC (modifications not checked) [decapeptide of trowaglerix α subunit (Troα10, …)], for which, in assay [2], the IC50, inhibition of the collagen-induced aggregation was 30.4 µM; the Inhibition of the collagen-induced aggregation (%) at 100 µg/ml is 93.8%; the inhibition on collagen-induced aggregation was found to be 60%. Consider EEFECLISRTFDNQWLSAPCSDTYSFVCKFEA [recombinant convulxin β subunit C-terminal (CVX β C-terminal 94-125)], for which the binding result in assay [3] is “binds”. For the molecule NQWLSR [Agk--β6 hexapeptide NQWLSR], in assay [4], the “Inhibition of the collagen-induced aggregation (%) at 100 µg/ml” value (shortened to “Inhibition … (%) at 100 µg/ml”) is 24.6%. As to RKWFVA [CVX-α6 (Convulxin) hexapeptide RKWFVA], the “Inhibition … (%) at 100 µg/ml” value in assay [4] worked out at 28.7%. Still for that read-out and setting: to RKWVNY [Agg-α6 (Aggretin) hexapeptide RKWVNY] belongs 21.7%. With CSLLKKETGFRKWFVASCIGKIPFVCKFPPQC [recombinant convulxin α subunit C-terminal (CVX α C-terminal 104-135)], the binding result in assay [3] is “binds”. For the molecule CKWMNV [hexapeptide of trowaglerix α subunit (Troα6, CKWMNV)], in assay [4], the “IC50, inhibition of the collagen-induced aggregation” value was 83.4 µg/ml and 107 µM; the “Inhibition … (%) at 100 µg/ml” value was 44.3%.
